Measurements as given in US20200148741A1.

Experiments:
[1] = biological target: T1, recombinant staphylococcal enterotoxin B (SEB), mature protein with N-terminal His6-tag (Staphylococcus aureus COL), P01552
T1 chain: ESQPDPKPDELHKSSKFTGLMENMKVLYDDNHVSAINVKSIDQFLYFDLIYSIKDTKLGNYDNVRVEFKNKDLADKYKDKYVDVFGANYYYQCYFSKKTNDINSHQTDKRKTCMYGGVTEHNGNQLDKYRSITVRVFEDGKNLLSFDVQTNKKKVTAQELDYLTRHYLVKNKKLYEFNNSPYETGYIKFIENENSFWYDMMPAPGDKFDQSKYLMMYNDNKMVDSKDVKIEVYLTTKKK

[2] = biological target: T2, recombinant toxic shock syndrome toxin-1 (TSST-1), mature protein with N-terminal His6-tag (Staphylococcus aureus), P06886
T2 chain: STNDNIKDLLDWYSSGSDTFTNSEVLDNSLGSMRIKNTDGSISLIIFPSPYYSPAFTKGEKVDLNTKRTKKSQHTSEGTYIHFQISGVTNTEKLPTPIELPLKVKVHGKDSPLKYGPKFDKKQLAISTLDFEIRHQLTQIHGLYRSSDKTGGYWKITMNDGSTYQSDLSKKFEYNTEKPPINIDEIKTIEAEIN

## DSDSWTLR (modifications not checked) [pB2-6, immobilized for Surface Plasmon Resonance]
[1]
  Kd: 3900 nM
  koff: 0.0019 s⁻¹
  kon: 491 M⁻¹ s⁻¹
[2]
  Kd: 1200 nM
  koff: 0.00304 s⁻¹
  kon: 2530 M⁻¹ s⁻¹
